Experimental data: US20240026407A1, “MODIFICATION OF SAPONINS” (GLAXOSMITHKLINE BIOLOGICALS SA, priority 2020, published 2024)

B1: 816 (protein)
chain: MTASTDHLRPLLEKLSLEQKAALVQGADFWTTVPLPEIGLRALTLSDGPAGVRGPRWDEREPSLNLPSGSALAASWDVDLAYRYGAAAASEARRKGVDVVLGPTINLHRSPLGGRHFECLSEDPELTAELGAAYVRGMQENGVAATPKHYVANDSETDRFTVDVEVDERTLREVYLAPFERAVEAGAWSVMSAYNSVDGVTMTENDLLENPLNSEWGFDGVVVSDWTAVRSLDAVAAAQDLAMPGPAPAWADLVDAVHDGRVDEADIDRKVLRILLLAERVGALEGADAVAPAPLDGPAFAKEAAVEGTVLLQNSGVLPLDLAGLTKVAIIGHNAKDARTQGGGSATVLPEKVVSPLDAIRAALPAAEVSYEIGAVVQEGVAEIPLASIENPVTGGPGVRVSFHGADGTELFAEDRRATALVWFGGDAPIGASRTIVLETRYTPAESGEIQLGFAGANPGRIFVDGELVLDDVPVIEGTDLGAAFLNPPSITSAVTVEAGRAVDLRAEFTRESRGALDGALSVTLGIAPERTDPDELIARAAAAASAAEVAVVVVGTNSKVESEGYDRVDLDLPGRQDDLVRAVAATGTPTVVVVNAGSPVVLPWAGEVAAIVQGYFGGQEFGHAIAEVLTGAAEPGGRLPTTWPAALADVPVADVTPVDGRLVYAEGLHIGYRAWLKDDVQPAFPFGHGLGYTTWSWGTAQRHDDTVEVTLANTGEREGKQVVQVYAERADSTVDRPARWLVGFAVVHAEPGRTVTAVVPVPARRLAHWAGEWVVEPGAYTLRVGSSVADLPLSVEWVQA
modifications: Microbacterium hydrocarbonoxydans
B2: 842 (protein, listed as Nonomuraea sp.)
chain: MNLQDKASLLSGRDFWSTKPVGDVPAAVLSDGPHGVRRQTGEADHVGIHESLPATCFPPAVAVGSSWDPAVAGRLAAAVAVEARALDVQINLGPGVNIKRSPLCGRNFEYYSEDPLLTGVLAAAHVEALQAGGVGASVKHFAANNQETGRMRVSAEIDERTLREIYLPAFERVVKHARPATVMAAYNKVNGVYASQHPWLLTRVLREEWGFDGVVVSDWGAVNDRVAALKAGLDLEMPGNPANDAMIVQAVRDGELDEAVVDRSVARVRAMVRAWRPEPAAFDADAHHALARELAAECAVLLKNDGDTLPIRADVQTIAVLGPFATEPRFQGGGSSHVTPTRVDSPLEEIRRLAGDRVVTADPDDADLAIVFAGPADLDESEGYDRAGLDLPAEQVELIRATAAAARRTVVVLSNGGVVSLEGWHDEVDAILEGWLLGQAGGGAIADLLFGVAAPSGRLAETIPMRLQDTASYLNFPGEQDVVRYGEGVMVGYRYHETAGRPVRYPFGHGLTYTTFAVSDLTVRVTGDDSARVSVTVANTGRRYGKHVVQLYVATQAGPVRRPARELRAFTKVGLEPGRSTTVTFDLDARAFAYWDVKEGRWLVAPGDYTVQIGENASAVVAEETIELAGEVIARELTLDSSVGEWFAHPQVGPVLMRHVAATMTEEQRAAAAEHQDLLRMIESLPMHQFLSPMGVRLPDQAVREMMELSRRPQ
B3: 827 (protein, listed as Bionectria ochroleuca)
chain: MAPTDVNAVLSKLTLEEKISILAGADFWQTVPIPEKGVPALKTSDGPNGARGETFSGGVTAACFPAACSVASTFDVDIARRIGVALGEETLTKGARCLLGPTICGHRHPLGGRNFESFSEDPFLAGTLASQSVQGIQSTGVAATMKHYAVNEQETERLSVDEIVDERTMREIYLRPFERVVKEAKPAAVMTGYNQVNGSHCDSHEFLLKQVLRGEWGWDGLVMSDWGGVNSVAESLNAGLDLEMPGPTRWRKVDEVVAAVKAGKVSEETINDRAIHVLRFLERQNCFKDPTIPPEQAVNKPEHQALIREAGSKGIVLLKNNDNVLPLTKEKARGKKIALLGLAKESLAHGGGSASLNAHYKITPWDALQEAYKGENVEFTYAKGAHTLRQLPVITKNVVDVDGKPGFTWRSYHVGESQPYNTVGGHAKSEISLLDGLNMVNTSIELEGTFTASESATYYFTLSGLGPSSVAINGTVVFEQEDNCSDPMGFLLGGVASPLVKYEFESGKQYKILLKSTPPAPVEGVDLGILEGKVGVRLGNMSASEHDKDILTEAIDLAKAADYAIVFTGHDPSWETEGQDQHSFNLPKDGSQDRLVSGVAAVNQNTIVVNSTGVAVAMPWLDEIKSLVHTWFPGQEAGNSIADVLTGERNPEGHLTCTFPKRLEDCPAYGNFPGEYNGRQLTVKYAEGVFVGYRHFDRLPAEKVNFPFGFGLSYTTFGFSDFDVKPTAAGDEWTASVKVTNTGSVKGAIAVQLYVGNSKTSPENPVKSLVSFKKVTLAAGGSAVVELPAQGRDIAFWSQQEHKWVLEAGEYNFSVGKSAGDLVATATVQVGGKTYAP
B4: 891 (protein, listed as Pseudarthrobacter chlorophenolicus)
chain: MNPTLPAAATVPAVGSPDAEARIRDLAESLTLEQQVQLLTGADVWSTHALPAIGLSRVVMSDGPAGVRGEDFDERHDSVSLPSSSALSATWSVDLARRYGQVLGQEARRKGVHAVLGPTINLHRSPLGGRHFECMSEDPRLTATIAAGYVAGVQSMGVGATPKHYLANEAETDRFTSDSVVDERPLRELYLAAFEDAVTEARAWLVMSSYNSINGTTASENDLLETPLSTEWGFDGVVVSDWTGVRSVDAANAHQDLEMPGPVGHWGPKLLAAVGDGRVSRTAILDKVVRILRLAARVGSLDGVSPAVTELPAPLNAPAVAREVAVRGAVLVRNKDGLLPLDPAALGSVAVSGHNAEEARTQGGGSATVMPKQNISPLEGLREALPANVAISYHRGAKVAEGLQAFPRTSLHNPVSNVPGLRVTFLAADGTELSGEDRLASHLIWFGIGIPEGAAAIRMETDWTAPSAGTHHLGLGTVGRIRLSLRGQEVFNGDIEDETEVLGAALFDPPKTVHAIETEAGERVRIEALFELPADQAIPFTAILLGEETVVADPQAEIDAAVEAARTADVAVVVVGTSAAIESEGFDRKDLDLPGHQNRLVEAVAAANPRTVVVVNSGSPVLMPWLDKVGAVLLGWFGGQEFGRAIADILLGAEEPGGRLPTTWPAALEDVPVLDTTPMDGKVVYSEGIHVGYRAWLKQQAAGGAAPALPFGYGLGYTTFELCTPHASQAVPAGKDVVVHVPVRNTGTRAGREVVQVYLERPESAVERPVRWLAGYAGTHLAAGGTSSVEVRIPGRAFAHYDGGWQVEPGTFRILVGRHSADGFQALDIDVR
B5: 857 (protein, listed as Streptomyces venezuelae)
chain: MTETGAHTAADAARESVVEAALAKLDLDSKTRLLAGQDMWSLPALPEIGLTSLVMSDGPIGVRGVRWTADDPSVALPSPTALAAAWDPALARRAGRLLAQEARRKGVHVLLAPTVNLHRTPLGGRHFEAYSEDPLLTGAIGTGYVQGVQDGGVGTTVKHFVANDAETDRFTVDNRIAPRPLRELYLAPFEAIVKNAHPWGIMTAYNQVNGVTMTEHRHLVNEVLRGEWGFDGFNVSDWMAARSTTGDIEGGLDVAMPGPQTVYGEALAAAVRAGEVEESTVDAAVRNVLRLAARVGALEGAPPVVTDPPAAIDGDALAREIAHRGFVLVRNENGALPLKNGTVALSGAAARDARVLGGGSAQVFPEHIVSPLDGLTAALPEGALTYTIGADPSDELTPADQGFTLRAVCRDASGTVLGEGTLPNGQVQWIGDDLPAGVTHEALASIEVVGRFTPRETGEHAFGTRGLGAFRLSVDGETLFDGVQALGPETDPFEAFFGSPVERAKVVLTAGETVDVSLLHTLDKEFAAPLPAVMFSFVHLGPRRDPDELIAEAVEAARAADTAVVVVATTERVESEGFDRKDLALPGRQDDLVRAVAAANPNTVVVVNAGSPVELPWREEVAAVLLSWFPGQEGGAALADVLTGAEEPGGRLPTTWPAALADAPVTEVTPTGGELDYAEGVFIGYRAWDKAGAVPAYAFGHGLGYTTWTYESLTARPGTATVRLTNTGDRPGREVVQVYLAPVDDGVERPARWLAGFGCVEAGPGETVETEIALPRRAFEIWDEEKNDWSFVGGAYEVLAARSLTDARLSATLEV
B6: 853 (protein, listed as Clostridium oryzae)
chain: MKRDIKEIVSKMTLEEKAGLCSGLDFWHTKGVERLGVPSIMVTDGPHGLRKQDTSADHLGINDSVPATCFPSGATLACSWDRSLLQKVGTALGEECQAEGVSVILGPAANIKRSPLCGRNFEYFSEDPYLSTEMAANHIKGVQSQGVGTSLKHFAVNNQEHRRLSVDAEVDERTLREIYLASFEGAVKQSQPWTVMCSYNKVNGTYASENEYLLTSILKEEWGHEGFVMSDWGAVDRRENALKAGLELEMPSSNGIGDNRIVQAVKNGELKEEVLDKAVERLLNIIFKAVDNKKEGAVYDREQHHSLARKIAGECMVLLKNEDNILPLKKEGKIAVIGGFVDKYRYQGGGSSHIKPNKLDNAAEELKKAAKGENIVFAKGFSLDNDEVDSKLMEEAKNAAASAETAVIFAGLPDRYESEGYDRSHMRIPDNQIALINAIAEVQKNIVVVLSNGSPIEMPWIGNVKGILEAYLGGEAGAGAIADILFGEVNPSGKLAESFPKKLSDNPSYLNFPGEGDTVEYKEGLFVGYRYYDKKEVETLFPFGYGLSYTTFEYKNITVDKKNITDEEKLVVKVTVKNTGKLTGKEIVQLYVRDVESSVIRPVKELKGFEKVELAAGEEKTVEFVLDKRTFAYYNVDIKDWYVESGDFEILIGSSSKDIYLKDVVNVEGTTAVKKIYTRNSTVGDVMANPQARKLTEELLSSTFGQGTDDSENLGTDMTAMMKDMTLRSILHFGGDKSKEKELDKILEMLNK

assay: Experiment 5-1: screening of additional glucosidases for deglycosylation with purified QS-18 (0.04 mg/ml) at pH 7.5 and 30 deg C; format: biochemical, Quillaja saponaria; settings: pH 7.5, 30 degrees C, 18 hours, LCMS/MS
Protocol: The 94 additional genes, together with positive control (DNA encoding SEQ ID No. 262) and negative control, were transformed, expressed, lysed and reacted in the same manner as described above for Experiment 4-1, except the reaction was incubated at 30 degrees C. for 18 hours.
Samples were analysed by LCMS/MS according to the procedure in Experiment 4-1.

Molecule | Experiment 5-1 % conv
B1 | 73.5%
B2 | 64.0%
B3 | 69.2%
B4 | 74.7%
B5 | 69.0%
B6 | 67.7%

assay: Experiment 5-2: screening of additional glucosidases for deglycosylation with QS-18 in crude bark extract (80%) at pH 6 and 35 deg C; format: biochemical, Quillaja saponaria; settings: CBE 80%, pH 6, 35 deg C, 18 hours; UV HPLC
Protocol: A plate was lysed at pH 6 as described in Experiment 4-2. 40 uL of clarified lysate was transferred to a reaction plate
The pH of CBE was adjusted to pH 6 by dropwise addition of 2M NaOH with stirring. 160 uL of pH 6 CBE was added to each well of the reaction plate. The reaction plate was sealed and incubated at 35 deg C. with shaking for 18 hours.
The reaction plate was quenched by adding 200 uL of MeCN (2% acetic acid (AcOH), 1 mg/mL hexanophenone) to each well of the plates. The quenched reaction plate was re-sealed and incubated at 20 deg C. with shaking for 10 min. The reaction plate was then centrifuged (10 min, 4 degC).
200 uL was transferred from each well of the quenched plate to the corresponding wells of a fresh 96 well plate and sealed. The plate was analysed by UV HPLC with the method of Experiment 4-4.

Molecule | Experiment 5-2 % conv
B1 | <0.5%
B2 | <0.5%
B3 | <0.5%
B4 | <0.5%
B5 | <0.5%
B6 | <0.5%

assay: Experiment 5-3: screening of additional glucosidases for deglycosylation with QS-18 in treated bark extract (80%) at pH 6 and 35 deg C; format: biochemical, Quillaja saponaria; settings: TBE 80% (QS-21 approx. 4 g/L), pH 6, 35 deg C; UV HPLC
Protocol: Experiment 5-1 was repeated, replacing CBE with Treated Bark Extract (TBE) at pH 6. TBE was prepared from CBE by PVPP treatment and concentration, to provide TBE with a QS-21 concentration of approximately 4 g/L. TBE was adjusted to pH 6 by dropwise addition of 2M NaOH with stirring.

Molecule | Experiment 5-3 % conv
B1 | <0.5%
B2 | <0.5%
B3 | <0.5%
B4 | <0.5%
B5 | <0.5%
B6 | 2.5%
